Experimental data as given in PMC12102759 (2025).

B1: MXI1 peptide 6-21 (Max-interacting protein 1), 16-mer library wild type / SIN3A PAH2 (SIN3A PAH domain, residues 295-383) (parent complex)
chain 1: MINVQRLLEAAEFLER
chain 2: SLQNNQPVEFNHAINYVNKIKNRFQGQPDIYKAFLEILHTYQKEQRNAKEAGGNYTPALTEQEVYAQVARLFKNQEDLLSEFGQFLPDA

Variants of: B1
Experiment: proteomic peptide phage display deep mutational scan (ProP-PD DMS): M13 P8 16-mer library selected against immobilised GST-tagged bait for four days (rounds), NGS of the eluted pools per day and pseudo-replica; bait immobilised on MaxiSorp plates (10 µg), library pre-cleared on GST, 2 h binding at 4 °C, five washes; one round per day, days 1-4; value from days 2 and 3

Point of comparison: chain 1 Q5N, screen value 0.000576 average fractional NGS count over selection days 2 and 3 (reads of this peptide / all reads for the bait, averaged over …. Against it:
- chain 1 Q5M — higher, 0.000803 average fractional NGS count over selection days 2 and 3 (reads of this peptide / all reads for the bait, averaged over …
- chain 1 Q5S — lower, 0.000556 average fractional NGS count over selection days 2 and 3 (reads of this peptide / all reads for the bait, averaged over …
- chain 1 Q5Y — higher, 0.00574 average fractional NGS count over selection days 2 and 3 (reads of this peptide / all reads for the bait, averaged over …
- chain 1 Q5A — higher, 0.000986 average fractional NGS count over selection days 2 and 3 (reads of this peptide / all reads for the bait, averaged over …
- chain 1 Q5T — higher, 0.00207 average fractional NGS count over selection days 2 and 3 (reads of this peptide / all reads for the bait, averaged over …
- chain 1 Q5F — lower, 0.000275 average fractional NGS count over selection days 2 and 3 (reads of this peptide / all reads for the bait, averaged over …
- chain 1 L8Y — higher, 0.000651 average fractional NGS count over selection days 2 and 3 (reads of this peptide / all reads for the bait, averaged over …
- chain 1 L8Q — lower, 0.000344 average fractional NGS count over selection days 2 and 3 (reads of this peptide / all reads for the bait, averaged over …
- chain 1 L8S — lower, 0.000473 average fractional NGS count over selection days 2 and 3 (reads of this peptide / all reads for the bait, averaged over …
- chain 1 L8M — lower, 0.000134 average fractional NGS count over selection days 2 and 3 (reads of this peptide / all reads for the bait, averaged over …
- chain 1 L8G — lower, 0.000132 average fractional NGS count over selection days 2 and 3 (reads of this peptide / all reads for the bait, averaged over …
- chain 1 L8T — lower, 0.000156 average fractional NGS count over selection days 2 and 3 (reads of this peptide / all reads for the bait, averaged over …
- chain 1 L8V — lower, 0.000127 average fractional NGS count over selection days 2 and 3 (reads of this peptide / all reads for the bait, averaged over …
- chain 1 L8I — higher, 0.00287 average fractional NGS count over selection days 2 and 3 (reads of this peptide / all reads for the bait, averaged over …
- chain 1 L8H — lower, 0.000323 average fractional NGS count over selection days 2 and 3 (reads of this peptide / all reads for the bait, averaged over …
- chain 1 E12L — higher, 0.0769 average fractional NGS count over selection days 2 and 3 (reads of this peptide / all reads for the bait, averaged over …
- chain 1 E12G — higher, 0.00105 average fractional NGS count over selection days 2 and 3 (reads of this peptide / all reads for the bait, averaged over …
- chain 1 E12S — lower, 0.000265 average fractional NGS count over selection days 2 and 3 (reads of this peptide / all reads for the bait, averaged over …
- chain 1 E12Q — higher, 0.00319 average fractional NGS count over selection days 2 and 3 (reads of this peptide / all reads for the bait, averaged over …
- chain 1 E12I — lower, 0.000347 average fractional NGS count over selection days 2 and 3 (reads of this peptide / all reads for the bait, averaged over …
- chain 1 E12R — higher, 0.00176 average fractional NGS count over selection days 2 and 3 (reads of this peptide / all reads for the bait, averaged over …
- chain 1 E12Y — lower, 0.000478 average fractional NGS count over selection days 2 and 3 (reads of this peptide / all reads for the bait, averaged over …
- chain 1 E12K — higher, 0.00174 average fractional NGS count over selection days 2 and 3 (reads of this peptide / all reads for the bait, averaged over …
- chain 1 E12T — lower, 0.000504 average fractional NGS count over selection days 2 and 3 (reads of this peptide / all reads for the bait, averaged over …
- chain 1 E12H — higher, 0.00554 average fractional NGS count over selection days 2 and 3 (reads of this peptide / all reads for the bait, averaged over …
- chain 1 E12N — lower, 0.000144 average fractional NGS count over selection days 2 and 3 (reads of this peptide / all reads for the bait, averaged over …
- chain 1 E12F — higher, 0.0145 average fractional NGS count over selection days 2 and 3 (reads of this peptide / all reads for the bait, averaged over …
- chain 1 E12V — lower, 0.000221 average fractional NGS count over selection days 2 and 3 (reads of this peptide / all reads for the bait, averaged over …
- chain 1 E12W — lower, 9.8e-05 average fractional NGS count over selection days 2 and 3 (reads of this peptide / all reads for the bait, averaged over …
- chain 1 E9H — lower, 0.000122 average fractional NGS count over selection days 2 and 3 (reads of this peptide / all reads for the bait, averaged over …
- chain 1 E9F — higher, 0.000875 average fractional NGS count over selection days 2 and 3 (reads of this peptide / all reads for the bait, averaged over …
- chain 1 E9D — higher, 0.000993 average fractional NGS count over selection days 2 and 3 (reads of this peptide / all reads for the bait, averaged over …
- chain 1 E9V — higher, 0.000671 average fractional NGS count over selection days 2 and 3 (reads of this peptide / all reads for the bait, averaged over …
- chain 1 E9I — lower, 0.000125 average fractional NGS count over selection days 2 and 3 (reads of this peptide / all reads for the bait, averaged over …
- chain 1 E9Y — lower, 0.000223 average fractional NGS count over selection days 2 and 3 (reads of this peptide / all reads for the bait, averaged over …
- chain 1 E9A — lower, 0.000182 average fractional NGS count over selection days 2 and 3 (reads of this peptide / all reads for the bait, averaged over …
- chain 1 E9M — lower, 0.000348 average fractional NGS count over selection days 2 and 3 (reads of this peptide / all reads for the bait, averaged over …
- chain 1 E9N — higher, 0.0151 average fractional NGS count over selection days 2 and 3 (reads of this peptide / all reads for the bait, averaged over …
- chain 1 E9G — lower, 0.000184 average fractional NGS count over selection days 2 and 3 (reads of this peptide / all reads for the bait, averaged over …
- chain 1 N3T — higher, 0.00466 average fractional NGS count over selection days 2 and 3 (reads of this peptide / all reads for the bait, averaged over …
- chain 1 N3G — higher, 0.00333 average fractional NGS count over selection days 2 and 3 (reads of this peptide / all reads for the bait, averaged over …
- chain 1 N3P — higher, 0.00138 average fractional NGS count over selection days 2 and 3 (reads of this peptide / all reads for the bait, averaged over …
- chain 1 N3L — higher, 0.0228 average fractional NGS count over selection days 2 and 3 (reads of this peptide / all reads for the bait, averaged over …
- chain 1 N3M — higher, 0.0121 average fractional NGS count over selection days 2 and 3 (reads of this peptide / all reads for the bait, averaged over …
- chain 1 N3V — lower, 0.000212 average fractional NGS count over selection days 2 and 3 (reads of this peptide / all reads for the bait, averaged over …
- chain 1 N3W — lower, 0.000465 average fractional NGS count over selection days 2 and 3 (reads of this peptide / all reads for the bait, averaged over …
- chain 1 N3H — lower, 0.000207 average fractional NGS count over selection days 2 and 3 (reads of this peptide / all reads for the bait, averaged over …
- chain 1 N3Y — lower, 0.000298 average fractional NGS count over selection days 2 and 3 (reads of this peptide / all reads for the bait, averaged over …
- chain 1 N3K — lower, 0.000249 average fractional NGS count over selection days 2 and 3 (reads of this peptide / all reads for the bait, averaged over …
- chain 1 V4W — lower, 0.00027 average fractional NGS count over selection days 2 and 3 (reads of this peptide / all reads for the bait, averaged over …
- chain 1 V4L — lower, 0.000307 average fractional NGS count over selection days 2 and 3 (reads of this peptide / all reads for the bait, averaged over …
- chain 1 V4I — lower, 0.000288 average fractional NGS count over selection days 2 and 3 (reads of this peptide / all reads for the bait, averaged over …
- chain 1 V4N — lower, 0.000273 average fractional NGS count over selection days 2 and 3 (reads of this peptide / all reads for the bait, averaged over …
- chain 1 V4H — lower, 0.000116 average fractional NGS count over selection days 2 and 3 (reads of this peptide / all reads for the bait, averaged over …
- chain 1 V4A — lower, 0.000356 average fractional NGS count over selection days 2 and 3 (reads of this peptide / all reads for the bait, averaged over …
- chain 1 V4Y — lower, 0.000247 average fractional NGS count over selection days 2 and 3 (reads of this peptide / all reads for the bait, averaged over …
- chain 1 L7F — higher, 0.000853 average fractional NGS count over selection days 2 and 3 (reads of this peptide / all reads for the bait, averaged over …
- chain 1 L7Y — higher, 0.00109 average fractional NGS count over selection days 2 and 3 (reads of this peptide / all reads for the bait, averaged over …
- chain 1 L7W — higher, 0.00101 average fractional NGS count over selection days 2 and 3 (reads of this peptide / all reads for the bait, averaged over …
- chain 1 A10G — higher, 0.00122 average fractional NGS count over selection days 2 and 3 (reads of this peptide / all reads for the bait, averaged over …
- chain 1 A10V — lower, 0.000572 average fractional NGS count over selection days 2 and 3 (reads of this peptide / all reads for the bait, averaged over …
- chain 1 A10Y — lower, 0.000126 average fractional NGS count over selection days 2 and 3 (reads of this peptide / all reads for the bait, averaged over …
- chain 1 L14R — higher, 0.000773 average fractional NGS count over selection days 2 and 3 (reads of this peptide / all reads for the bait, averaged over …
- chain 1 L14E — higher, 0.00161 average fractional NGS count over selection days 2 and 3 (reads of this peptide / all reads for the bait, averaged over …
- chain 1 L14M — higher, 0.000829 average fractional NGS count over selection days 2 and 3 (reads of this peptide / all reads for the bait, averaged over …
- chain 1 L14D — lower, 0.000292 average fractional NGS count over selection days 2 and 3 (reads of this peptide / all reads for the bait, averaged over …
- chain 1 L14N — higher, 0.0048 average fractional NGS count over selection days 2 and 3 (reads of this peptide / all reads for the bait, averaged over …
- chain 1 L14S — higher, 0.00955 average fractional NGS count over selection days 2 and 3 (reads of this peptide / all reads for the bait, averaged over …
- chain 1 L14W — lower, 0.000239 average fractional NGS count over selection days 2 and 3 (reads of this peptide / all reads for the bait, averaged over …
- chain 1 L14K — lower, 0.000523 average fractional NGS count over selection days 2 and 3 (reads of this peptide / all reads for the bait, averaged over …
- chain 1 L14H — higher, 0.00159 average fractional NGS count over selection days 2 and 3 (reads of this peptide / all reads for the bait, averaged over …
- chain 1 L14P — higher, 0.0014 average fractional NGS count over selection days 2 and 3 (reads of this peptide / all reads for the bait, averaged over …
- chain 1 L14G — lower, 0.000436 average fractional NGS count over selection days 2 and 3 (reads of this peptide / all reads for the bait, averaged over …
- chain 1 L14V — lower, 0.000293 average fractional NGS count over selection days 2 and 3 (reads of this peptide / all reads for the bait, averaged over …
